According to IntAct's records for PubMed 17235283:

B1: Lymphocyte cytosolic protein 2 (Homo sapiens), Q13094 (parent)
chain: MALRNVPFRSEVLGWDPDSLADYFKKLNYKDCEKAVKKYHIDGARFLNLTENDIQKFPKLRVPILSKLSQEINKNEERRSIFTRKPQVPRFPEETESHEEDNGGWSSFEEDDYESPNDDQDGEDDGDYESPNEEEEAPVEDDADYEPPPSNDEEALQNSILPAKPFPNSNSMYIDRPPSGKTPQQPPVPPQRPMAALPPPPAGRNHSPLPPPQTNHEEPSRSRNHKTAKLPAPSIDRSTKPPLDRSLAPFDREPFTLGKKPPFSDKPSIPAGRSLGEHLPKIQKPPLPPTTERHERSSPLPGKKPPVPKHGWGPDRRENDEDDVHQRPLPQPALLPMSSNTFPSRSTKPSPMNPLPSSHMPGAFSESNSSFPQSASLPPYFSQGPSNRPPIRAEGRNFPLPLPNKPRPPSPAEEENSLNEEWYVSYITRPEAEAALRKINQDGTFLVRDSSKKTTTNPYVLMVLYKDKVYNIQIRYQKESQVYLLGTGLRGKEDFLSVSDIIDYFRKMPLLLIDGKNRGSRYQCTLTHAAGYP

Variants of: B1
Conditions: with grb2_human GRB2, P62993

| effect of a mutation on the interaction | Variant |
| --- | --- |
| decreasing interaction | MALRNVPFRSEVLGWDPDSLADYFKKLNYKDCEKAVKKYHIDGARFLNLTENDIQKFPKLRVPILSKLSQEINKNEERRSIFTRKPQVPRFPEETESHEEDNGGWSSFEEDDYESPNDDQDGEDDGDYESPNEEEEAPVEDDADYEPPPSNDEEALQNSILPAKPFPNSNSMYIDRPPSGKTPQQPPVPPQRPMAALPPPPAGRNHSPLPPPQTNHEEPSRSRNHKTAKLPAPSIDRRTKPPLDRSLAPFDREPFTLGKKPPFSDKPSIPAGRSLGEHLPKIQKPPLPPTTERHERSSPLPGKKPPVPKHGWGPDRRENDEDDVHQRPLPQPALLPMSSNTFPSRSTKPSPMNPLPSSHMPGAFSESNSSFPQSASLPPYFSQGPSNRPPIRAEGRNFPLPLPNKPRPPSPAEEENSLNEEWYVSYITRPEAEAALRKINQDGTFLVRDSSKKTTTNPYVLMVLYKDKVYNIQIRYQKESQVYLLGTGLRGKEDFLSVSDIIDYFRKMPLLLIDGKNRGSRYQCTLTHAAGYP [S238R] |

Variants of: B1
Conditions: with stam1_human STAM

| effect of a mutation on the interaction | Variant |
| --- | --- |
| decreasing interaction | MALRNVPFRSEVLGWDPDSLADYFKKLNYKDCEKAVKKYHIDGARFLNLTENDIQKFPKLRVPILSKLSQEINKNEERRSIFTRKPQVPRFPEETESHEEDNGGWSSFEEDDYESPNDDQDGEDDGDYESPNEEEEAPVEDDADYEPPPSNDEEALQNSILPAKPFPNSNSMYIDRPPSGKTPQQPPVPPQRPMAALPPPPAGRNHSPLPPPQTNHEEPSRSRNHKTAKLPAPSIDRRTKPPLDRSLAPFDREPFTLGKKPPFSDKPSIPAGRSLGEHLPKIQKPPLPPTTERHERSSPLPGKKPPVPKHGWGPDRRENDEDDVHQRPLPQPALLPMSSNTFPSRSTKPSPMNPLPSSHMPGAFSESNSSFPQSASLPPYFSQGPSNRPPIRAEGRNFPLPLPNKPRPPSPAEEENSLNEEWYVSYITRPEAEAALRKINQDGTFLVRDSSKKTTTNPYVLMVLYKDKVYNIQIRYQKESQVYLLGTGLRGKEDFLSVSDIIDYFRKMPLLLIDGKNRGSRYQCTLTHAAGYP [S238R] |

Variants of: B1
Conditions: with stam2_human STAM2, O75886

| effect of a mutation on the interaction | Variant |
| --- | --- |
| decreasing interaction | MALRNVPFRSEVLGWDPDSLADYFKKLNYKDCEKAVKKYHIDGARFLNLTENDIQKFPKLRVPILSKLSQEINKNEERRSIFTRKPQVPRFPEETESHEEDNGGWSSFEEDDYESPNDDQDGEDDGDYESPNEEEEAPVEDDADYEPPPSNDEEALQNSILPAKPFPNSNSMYIDRPPSGKTPQQPPVPPQRPMAALPPPPAGRNHSPLPPPQTNHEEPSRSRNHKTAKLPAPSIDRRTKPPLDRSLAPFDREPFTLGKKPPFSDKPSIPAGRSLGEHLPKIQKPPLPPTTERHERSSPLPGKKPPVPKHGWGPDRRENDEDDVHQRPLPQPALLPMSSNTFPSRSTKPSPMNPLPSSHMPGAFSESNSSFPQSASLPPYFSQGPSNRPPIRAEGRNFPLPLPNKPRPPSPAEEENSLNEEWYVSYITRPEAEAALRKINQDGTFLVRDSSKKTTTNPYVLMVLYKDKVYNIQIRYQKESQVYLLGTGLRGKEDFLSVSDIIDYFRKMPLLLIDGKNRGSRYQCTLTHAAGYP [S238R] |

Variants of: B1
Conditions: with grb2_human GRB2, P62993
Remark: another data set of the same source

| effect of a mutation on the interaction | Variant |
| --- | --- |
| disrupting interaction | MALRNVPFRSEVLGWDPDSLADYFKKLNYKDCEKAVKKYHIDGARFLNLTENDIQKFPKLRVPILSKLSQEINKNEERRSIFTRKPQVPRFPEETESHEEDNGGWSSFEEDDYESPNDDQDGEDDGDYESPNEEEEAPVEDDADYEPPPSNDEEALQNSILPAKPFPNSNSMYIDRPPSGKTPQQPPVPPQRPMAALPPPPAGRNHSPLPPPQTNHEEPSRSRNHKTAKLPAPSIDRSPKPPLDRSLAPFDREPFTLGKKPPFSDKPSIPAGRSLGEHLPKIQKPPLPPTTERHERSSPLPGKKPPVPKHGWGPDRRENDEDDVHQRPLPQPALLPMSSNTFPSRSTKPSPMNPLPSSHMPGAFSESNSSFPQSASLPPYFSQGPSNRPPIRAEGRNFPLPLPNKPRPPSPAEEENSLNEEWYVSYITRPEAEAALRKINQDGTFLVRDSSKKTTTNPYVLMVLYKDKVYNIQIRYQKESQVYLLGTGLRGKEDFLSVSDIIDYFRKMPLLLIDGKNRGSRYQCTLTHAAGYP [T239P] |

Variants of: B1
Conditions: with stam1_human STAM
Remark: another data set of the same source

| effect of a mutation on the interaction | Variant |
| --- | --- |
| disrupting interaction | MALRNVPFRSEVLGWDPDSLADYFKKLNYKDCEKAVKKYHIDGARFLNLTENDIQKFPKLRVPILSKLSQEINKNEERRSIFTRKPQVPRFPEETESHEEDNGGWSSFEEDDYESPNDDQDGEDDGDYESPNEEEEAPVEDDADYEPPPSNDEEALQNSILPAKPFPNSNSMYIDRPPSGKTPQQPPVPPQRPMAALPPPPAGRNHSPLPPPQTNHEEPSRSRNHKTAKLPAPSIDRSPKPPLDRSLAPFDREPFTLGKKPPFSDKPSIPAGRSLGEHLPKIQKPPLPPTTERHERSSPLPGKKPPVPKHGWGPDRRENDEDDVHQRPLPQPALLPMSSNTFPSRSTKPSPMNPLPSSHMPGAFSESNSSFPQSASLPPYFSQGPSNRPPIRAEGRNFPLPLPNKPRPPSPAEEENSLNEEWYVSYITRPEAEAALRKINQDGTFLVRDSSKKTTTNPYVLMVLYKDKVYNIQIRYQKESQVYLLGTGLRGKEDFLSVSDIIDYFRKMPLLLIDGKNRGSRYQCTLTHAAGYP [T239P] |

Variants of: B1
Conditions: with stam2_human STAM2, O75886
Remark: another data set of the same source

| effect of a mutation on the interaction | Variant |
| --- | --- |
| disrupting interaction | MALRNVPFRSEVLGWDPDSLADYFKKLNYKDCEKAVKKYHIDGARFLNLTENDIQKFPKLRVPILSKLSQEINKNEERRSIFTRKPQVPRFPEETESHEEDNGGWSSFEEDDYESPNDDQDGEDDGDYESPNEEEEAPVEDDADYEPPPSNDEEALQNSILPAKPFPNSNSMYIDRPPSGKTPQQPPVPPQRPMAALPPPPAGRNHSPLPPPQTNHEEPSRSRNHKTAKLPAPSIDRSPKPPLDRSLAPFDREPFTLGKKPPFSDKPSIPAGRSLGEHLPKIQKPPLPPTTERHERSSPLPGKKPPVPKHGWGPDRRENDEDDVHQRPLPQPALLPMSSNTFPSRSTKPSPMNPLPSSHMPGAFSESNSSFPQSASLPPYFSQGPSNRPPIRAEGRNFPLPLPNKPRPPSPAEEENSLNEEWYVSYITRPEAEAALRKINQDGTFLVRDSSKKTTTNPYVLMVLYKDKVYNIQIRYQKESQVYLLGTGLRGKEDFLSVSDIIDYFRKMPLLLIDGKNRGSRYQCTLTHAAGYP [T239P] |

Variants of: B1
Conditions: with stam1_human STAM
Remark: another data set of the same source

| effect of a mutation on the interaction | Variant |
| --- | --- |
| decreasing interaction | MALRNVPFRSEVLGWDPDSLADYFKKLNYKDCEKAVKKYHIDGARFLNLTENDIQKFPKLRVPILSKLSQEINKNEERRSIFTRKPQVPRFPEETESHEEDNGGWSSFEEDDYESPNDDQDGEDDGDYESPNEEEEAPVEDDADYEPPPSNDEEALQNSILPAKPFPNSNSMYIDRPPSGKTPQQPPVPPQRPMAALPPPPAGRNHSPLPPPQTNHEEPSRSRNHKTAKLPAPPIDRSTKPPLDRSLAPFDREPFTLGKKPPFSDKPSIPAGRSLGEHLPKIQKPPLPPTTERHERSSPLPGKKPPVPKHGWGPDRRENDEDDVHQRPLPQPALLPMSSNTFPSRSTKPSPMNPLPSSHMPGAFSESNSSFPQSASLPPYFSQGPSNRPPIRAEGRNFPLPLPNKPRPPSPAEEENSLNEEWYVSYITRPEAEAALRKINQDGTFLVRDSSKKTTTNPYVLMVLYKDKVYNIQIRYQKESQVYLLGTGLRGKEDFLSVSDIIDYFRKMPLLLIDGKNRGSRYQCTLTHAAGYP [S234P] |

Variants of: B1
Conditions: with stam2_human STAM2, O75886
Remark: another data set of the same source

| effect of a mutation on the interaction | Variant |
| --- | --- |
| decreasing interaction | MALRNVPFRSEVLGWDPDSLADYFKKLNYKDCEKAVKKYHIDGARFLNLTENDIQKFPKLRVPILSKLSQEINKNEERRSIFTRKPQVPRFPEETESHEEDNGGWSSFEEDDYESPNDDQDGEDDGDYESPNEEEEAPVEDDADYEPPPSNDEEALQNSILPAKPFPNSNSMYIDRPPSGKTPQQPPVPPQRPMAALPPPPAGRNHSPLPPPQTNHEEPSRSRNHKTAKLPAPPIDRSTKPPLDRSLAPFDREPFTLGKKPPFSDKPSIPAGRSLGEHLPKIQKPPLPPTTERHERSSPLPGKKPPVPKHGWGPDRRENDEDDVHQRPLPQPALLPMSSNTFPSRSTKPSPMNPLPSSHMPGAFSESNSSFPQSASLPPYFSQGPSNRPPIRAEGRNFPLPLPNKPRPPSPAEEENSLNEEWYVSYITRPEAEAALRKINQDGTFLVRDSSKKTTTNPYVLMVLYKDKVYNIQIRYQKESQVYLLGTGLRGKEDFLSVSDIIDYFRKMPLLLIDGKNRGSRYQCTLTHAAGYP [S234P] |
